The record followed here is patent publication US20240239878A1 (SHANGHAI QILU PHARMACEUTICAL RESEARCH AND DEVELOPMENT CENTRE, published 2024).

The target of experiment [1] is T1, human DLL3 on SHP-77 cells (human, UniProt Q9NYJ7 27-618).
T1 construct: also called DLL3-expressing cells (SHP-77)
T1 sequence: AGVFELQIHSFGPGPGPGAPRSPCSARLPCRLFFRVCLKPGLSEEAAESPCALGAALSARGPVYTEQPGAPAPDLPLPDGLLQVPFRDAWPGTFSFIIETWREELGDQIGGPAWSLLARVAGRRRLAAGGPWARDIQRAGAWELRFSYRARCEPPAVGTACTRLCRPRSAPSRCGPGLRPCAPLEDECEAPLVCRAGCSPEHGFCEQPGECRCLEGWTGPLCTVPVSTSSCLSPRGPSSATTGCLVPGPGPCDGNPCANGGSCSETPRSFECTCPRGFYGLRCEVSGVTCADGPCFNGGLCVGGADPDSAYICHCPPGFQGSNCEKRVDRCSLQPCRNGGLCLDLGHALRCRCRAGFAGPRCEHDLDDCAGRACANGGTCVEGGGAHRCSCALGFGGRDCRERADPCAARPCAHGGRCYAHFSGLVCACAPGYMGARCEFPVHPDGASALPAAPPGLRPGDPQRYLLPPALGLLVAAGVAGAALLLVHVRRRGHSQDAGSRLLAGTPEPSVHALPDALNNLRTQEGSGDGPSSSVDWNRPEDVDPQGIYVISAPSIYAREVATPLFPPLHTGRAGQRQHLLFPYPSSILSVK
Put plainly: flow cytometry, SHP-77 cells. The protocol:
Monoclonal selection was performed, and the expression level of DLL3 protein in the monoclonal cells were identified by flow cytometry. The culture was expanded and stored in storage for later use. SHP-77 and HEK293-cyno DLL3 cells were cultured. The culture medium for SHP-77 cells were RPMI1640+10% FBS, and the culture medium for HEK293 cyno DLL3 cells were DMEM+10% FBS+200 μg/ml Hygromycin. The cells were cultured in a T75 cell culture flask at a 37° ° C. in a 5% CO₂ incubator. When using cells, they are washed with sterile DPBS, digested with 0.25% trypsin EDTA for about 5 minutes, and then stopped with a complete medium.
The digested cells were centrifuged at 1000 rpm for 5 min at room temperature. The supernatant was discarded and the cells were resuspended in 100 μL of 1% BSA (in PBS). The cells were counted and adjusted to a cell density of 1E6/m. The dilute cells were seeded in a 96-well round-bottom culture plate (corning 3799), and centrifuged at 1500 rpm for 5 min at 4° C. The supernatant was discarded and the cells were stored at 4° C. until use. Antibody samples to be tested were diluted with 1% BSA (in PBS) at a starting concentration of 100 nM, downwards by a 10-fold gradient for 7 concentrations. The cells were resuspended with the diluted antibody at 100 μL/well and incubated for 1 hour at 4° C. The cells were centrifuged at 1500 rpm for 5 minutes at 4° C. and the supernatant was discarded. The cells were resuspended and washed with 160 μL of 1% BSA (in PBS), centrifuged at 1500 rpm for 5 minutes at 4° C. The supernatant was discarded. The secondary antibody (goat anti human IgG Fc PE) was diluted 1:200 with 1% BSA (in PBS) according to the manufacturer's instructions and the cells were resuspended with the diluted secondary antibody. 100 μL/well, and incubated for 0.5 h at 4° C. The cells were centrifuged at 1500 rpm for 5 minutes at 4° C. and the supernatant was discarded. The cells were resuspended and washed with 160 μL of 1% BSA (in PBS), centrifuged at 1500 rpm for 5 minutes at 4° C. The supernatant was discarded. The cells were resuspended in 100 μL of 1% BSA (in PBS), and filtered across a 300 mesh gauze. The mean fluorescence intensity of the PE channels was measured by flow cytometry.

The target in experiment [2] is T2, human DLL3 antigen protein (Kactus Biosystems, Cat. No. DLL-HM103) (human, UniProt Q9NYJ7 27-492).
T2 sequence: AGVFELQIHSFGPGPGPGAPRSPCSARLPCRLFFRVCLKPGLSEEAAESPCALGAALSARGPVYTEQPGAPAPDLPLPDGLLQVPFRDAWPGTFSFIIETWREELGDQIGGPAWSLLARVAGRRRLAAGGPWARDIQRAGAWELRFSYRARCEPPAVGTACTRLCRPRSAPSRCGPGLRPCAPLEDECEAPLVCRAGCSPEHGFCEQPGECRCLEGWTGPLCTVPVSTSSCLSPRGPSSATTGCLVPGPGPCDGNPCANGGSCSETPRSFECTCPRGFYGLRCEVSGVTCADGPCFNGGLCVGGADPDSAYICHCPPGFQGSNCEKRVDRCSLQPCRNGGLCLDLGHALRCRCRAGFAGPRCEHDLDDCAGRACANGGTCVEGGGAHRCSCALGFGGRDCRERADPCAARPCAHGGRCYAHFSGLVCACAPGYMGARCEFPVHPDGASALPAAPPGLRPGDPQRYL
Put plainly: SPR (Biacore 8K), antibody captured on anti-human Fc, DLL3 in solution. Here is the method: The affinity and kinetic properties of the humanized anti-DLL3 antibody to human DLL3 were analyzed using a Biacore 8K instrument. CM5 chips were activated with EDC and NHS, followed by immobilization of anti-human Fc murine mAb and blocked with ethanolamine.
Human DLL3 was diluted two-fold serially to serial concentrations (100 nM-0.39 nM) and associated for 90 s and dissociated for 600 s at a flow rate of 50 μL/min.
After completion of each round of the experiment, the captured antibody was removed together with the antigen by washing with a 3M MgCl₂ solution at a flow rate of 30 μL/min for 30 s to complete the regeneration of the chip. The raw data were analyzed using Biacore Insight Evaluation Software (3.0.12.15655) software and fitted with a (1:1) Langmuir model with.

B1: DLL3-122 camelid-derived anti-DLL3 chimeric antibody (antibody, human IgG1, V domains shown)
VH: QVQLVESGGGSVQAGGSLRLSCTASGDTYRSYCMGWFRKAPGKEREGVADIVSDGSTSYADSVKGRFTISKDNAKNTLYLQMNSLKPEDTAMYYCAVDRGGSGGYCYTGRYDYWGQGTQVTVSS
Take B1: in experiment [1], the EC50 worked out at 0.427 nM and the “Top MFI” value amounted to 846 MFI.

B2: H2-39E2D11 mouse hybridoma-derived humanized anti-DLL3 antibody (antibody, V domains shown)
VH: QVQLVQSGAEVKKPGASVKVSCKASGYTFISYWITWVRQAPGQGLEWMGDIYPGSGSTTNYNEKFKSRVTMTRDTSTSTVYMELSSLRSEDTAVYYCARETTVGGAYAMDYWGQGTLVTVSS
VL: EIVLTQSPATLSLSPGERATLSCRASQSINNNLHWYQQKPGQAPRLLIKYVSQSISGIPARFSGSGSGTDFTLTISSLEPEDFAVYYCQQTNSWPLTFGGGTKLEIK
For the molecule B2, in experiment [2], the Kd is 0.576 nM, the koff is 0.00018 s⁻¹ and the kon stood at 313000 M⁻¹ s⁻¹.

B3: DLL3-26 camelid-derived anti-DLL3 chimeric antibody (antibody, human IgG1, V domains shown)
VH: QVQLVESGGGSVQAGGSLRLSCAASGDIYSSSYVGWFRQAPGKEREGVAIIYTSGDSTYYANSVKGRFTISQDKAKKTLYLQMNSLKPEDTAMYYCAARFAIDNSNYWGQGTQVTVSS
For B3, in experiment [1], a half-maximal effect (EC50) was put at 0.519 nM and the “Top MFI” value is 821 MFI.

B4: DLL3-3 camelid-derived anti-DLL3 chimeric antibody (antibody, human IgG1, V domains shown)
VH: DVQLVESGGGSVQAGGSLKLSCKSPTYTISSGYMGWFRQAPGKEREGVAAIYIGGSTTLYADSVKGRFTISADNAEKTVYLQMNTLKPEDSAMYYCAAQLRPNSAYHPLDGRKYNYWGQGTQVTVSS
For the molecule B4, in experiment [1], the EC50 is 0.047 nM and the “Top MFI” value stood at 874 MFI.
